These results are taken from the supplement of paper PMC9170038.

The subject of the data set is MS2 coat protein. As to the kind of experiment: apparent KD of MS2 coat protein; designed switch direction (-1 OFF switch, 1 ON switch): -1; higher = weaker reporter binding. The method, boiled down:
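On Illumina chips, designed RNA switches with common flanks were made by stalled E. coli RNA polymerase. Titrations with SNAP-549-labelled MS2 coat protein, doubling from 0.7 or 1.5 nM to 3 µM, were done with no input, with 200 uM small-molecule ligand, or with an oligonucleotide input. Apparent KD is the median per design over clusters, from curve fits of normalised cluster fluorescence.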

[1] abbreviates: Eterna round: R95, input ligand: microRNA oligo, concentration not stated.
The mark [2] stands for this setting: input ligand: microRNA oligo, concentration not stated.

For the sequence “UUAUCCGCUGAGGAUAUUAUCAGUGAGAGCUGAUGAGAAGGCGGUACAUGAGGAUCACCCAUGUCUAUGGGCAG [Ex-6 Malc#24] (puzzle: Exclusion 6)”, the “apparent KD of MS2 coat protein” value is, setting by setting: (Eterna round: R95, input ligand: FMN 200 uM) 472 nM; under setting [1], 337 nM; (Eterna round: R95, input ligand: none) 435 nM.

In the case of “UUAUGACAUGAGGAUCACCCAUGUAAGGAUAUCGAAGGAGAUGGUUACGAGGCCGCUACGAGAAGGUACGCGGG [Eternabot (L2) Solution 23] (Eterna round: R97, puzzle: Exclusion 1)”, the “apparent KD of MS2 coat protein” value is, setting by setting: (input ligand: FMN 200 uM) 161 nM; (input ligand: none) 109 nM.

For “UUAUUAUAUGUAGGAUAUGCAUAUUGUUGUUAUGCAGAAGGACAUGAGGAUCACCCAUGUAUAUUGUUGUUAUAUAUUAUAUAU [Title] (Eterna round: R96, puzzle: Exclusion NG 1)”, the “apparent KD of MS2 coat protein” value by setting is: (input ligand: FMN 200 uM) 27.1 nM; under setting [2], 18.6 nM; (input ligand: none) 22.3 nM.

Regarding “UUCACAUGGACAUAAGAUCACAUGAGGAUCACCCAUGUGAAUAACAAGCUUUUUGCUCGUCUUAUGUCCAAUAAUAA [Stov1/14-A1] (Eterna round: R97, puzzle: Sensor, turn-off variant 1)”, the “apparent KD of MS2 coat protein” value came out at 14.1 nM (input ligand: FMN 200 uM) and 12.2 nM (input ligand: none).

With “UUCACAUGGACAUGAGAUCACAUGAGGAUCACCCAUGUGAAUAACAAGCUUUUUGUUCGUCUUAUGUCCAAUAAUAG [Stov1/14-D3] (Eterna round: R97, puzzle: Sensor, turn-off variant 1)”, the “apparent KD of MS2 coat protein” value (input ligand: FMN 200 uM) came to 14 nM and the “apparent KD of MS2 coat protein” value (input ligand: none) came to 14.1 nM.

As to “UUCAGACAUGAGGAUCACCCAUGUGAGGAUAUGAUGCGAUCGUCGAAAGACGAUAGCAUCAGAAGGCACAUAUG [Fiskers Ex 1 - 17] (puzzle: Exclusion 1)”, the “apparent KD of MS2 coat protein” value under setting [1] came to 153 nM.

As to “UUCAUGUGAGGAUAUGUGCAAGACCUAGAGAUUGGGUUUUCACAGAAGGCACAUGAGGAUCACCCAUGUGUUAC [Eternabot (L2) Solution 23] (Eterna round: R97, puzzle: Exclusion 4)”, the “apparent KD of MS2 coat protein” value reads like this: (input ligand: FMN 200 uM) 232 nM; (input ligand: none) 126 nM.

Turning to “UUCCAACAUGAGGAUCACCCAUGUCAGGAUAUGCGACCUCCACCACCAACCUCACCUCGCAGAAGGGACACACC [Mod-Cyanosaur/default-title] (Eterna round: R97, puzzle: Exclusion 1)”, the “apparent KD of MS2 coat protein” value is, setting by setting: (input ligand: FMN 200 uM) 24.2 nM; (input ligand: none) 23.7 nM.

Regarding “UUCCGACAUGAGGAUCACCCAUGUGAGGAUAUGUUCGAAAGCUAAGACUGCGACAGGAAUAGAAGGCGCGGGUA [Eternabot (Original) Solution 17] (Eterna round: R97, puzzle: Exclusion 1)”, the “apparent KD of MS2 coat protein” value is, setting by setting: (input ligand: FMN 200 uM) 20.4 nM; (input ligand: none) 20.4 nM.

With “UUCCUCACUUCUUUGUCUCACAUGAGGAUCACCCAUGUAAUAUAGGAUAUGCAUAGUAUUUCUAUGCAGAAGGAUAUUAGUUUU [JR_ExcNG3_Sub087] (Eterna round: R96, puzzle: Exclusion NG 3)”, the “apparent KD of MS2 coat protein” value came out at 131 nM (input ligand: FMN 200 uM), 27.3 nM under setting [2] and 34.7 nM (input ligand: none).

As to “UUCCUCUCUUCUCUGUCUCACAUGAGGAUCACCCAUGUAACAUAGGAUAUGCUUGGUAUUUAAAUGCAGAAGGAUGUUAGUAUU [JR_ExcNG3_Sub082] (Eterna round: R96, puzzle: Exclusion NG 3)”, the “apparent KD of MS2 coat protein” value is 82.9 nM (input ligand: FMN 200 uM), 22.4 nM under setting [2] and 30.2 nM (input ligand: none).

Consider “UUCGUGCAGCUUUGCUGUACGAGUACAUGAGGAUCACCCAUGUAGGAUAUGGUACGCUUUGCGUGCUAGAAGGAUAUGUGUAGG [JL EXNG3 1.37] (Eterna round: R96, puzzle: Exclusion NG 3)”, for which the “apparent KD of MS2 coat protein” value came to 55.5 nM (input ligand: FMN 200 uM), 27.5 nM under setting [2] and 43.9 nM (input ligand: none).

For “UUCUACAAGCUGAGAUCCUACAUGAGGAUCACCCAUGUGGUCCGGAACAUUCUGUCACCGGAUCUUGCUCGUCUUGU [salish99_S_TOV1_R5_104] (Eterna round: R97, puzzle: Sensor, turn-off variant 1)”, the “apparent KD of MS2 coat protein” value was determined as 41.9 nM (input ligand: FMN 200 uM) and 48.4 nM (input ligand: none).

In the case of “UUCUGGACAGGAUAUGUACUUGAGCACUUGAGGAUCACCCAAGUCCUCAAGUACUCAGGCACAGAAGGGUUAAUUU [jl-ex5.4.65 ViennaUCT mod] (Eterna round: R97, puzzle: Exclusion 5)”, the “apparent KD of MS2 coat protein” value runs as follows: (input ligand: FMN 200 uM) 110 nM; (input ligand: none) 71.9 nM.

“UUGAAGUCGUCAGGAUAUAGAUUUAAUGUCAUGCGUAUGUUCUUACAUGAGGAUCACCCAUGUCGCUAGAAGGGACUAUAGAUU [JR_ExcNG2_Sub008] (Eterna round: R96, puzzle: Exclusion NG 2)”: the “apparent KD of MS2 coat protein” value (input ligand: FMN 200 uM) was 54.6 nM, the “apparent KD of MS2 coat protein” value under setting [2] is 35.1 nM and the “apparent KD of MS2 coat protein” value (input ligand: none) stood at 45.1 nM.

“UUGAAUUAGCAGGAUAUGGGAGUCGAUAGACACCCAGAAGGGCUAACAUGAGGAUCACCCAUGUGUCCUAUCAA [Mod of Eli 22 - Jieux - Exclusion 6] (Eterna round: R97, puzzle: Exclusion 6)”: the “apparent KD of MS2 coat protein” value is 204 nM (input ligand: FMN 200 uM) and 33.9 nM (input ligand: none).

Consider “UUGAUACAUGAGGAUCACCCAUGUUAGGAUAUACGCAUGCAUGCAUGCAUGCAUGCAAGUAGAAGGAACCAUGC [Design #1] (Eterna round: R97, puzzle: Exclusion 1)”, for which the “apparent KD of MS2 coat protein” value (input ligand: FMN 200 uM) was determined as 30.7 nM and the “apparent KD of MS2 coat protein” value (input ligand: none) was 42 nM.

“UUGAUGUCAUCAGGAUAUAGUAUUUAAGACAUAUCUUCUUUCUUACAUGAGGAUCACCCAUGUCGCUAGAAGGGAUGAAUGAUU [JR_ExcNG2_Sub086] (Eterna round: R96, puzzle: Exclusion NG 2)”: under setting [2], the “apparent KD of MS2 coat protein” value turned out to be 13.4 nM.

Take “UUGCAGUCAUCAGGAUAUAGUAUUACGGCCAUUUAUAUUUUCAUACAUGAGGAUCACCCAUGUCGCUAGAAGGGAUUAUCGAUU [Exclusion NG 2] (Eterna round: R96, puzzle: Exclusion NG 2)”: the “apparent KD of MS2 coat protein” value under setting [2] stood at 34.5 nM.

For the sequence “UUGCAGUCGUCAGGAUAUAGUAUUACGGCCUUUCAUUUCUUCAUACAUGAGGAUCACCCAUGUCGCUAGAAGGGAUUAUCGAUU [salish99_ExNG2_r04_106] (Eterna round: R96, puzzle: Exclusion NG 2)”, the “apparent KD of MS2 coat protein” value is 16 nM (input ligand: FMN 200 uM), 17.1 nM under setting [2] and 23 nM (input ligand: none).

As to “UUGGAUGUUGAGGAUAUGCUGGUGUUUAUUAUAGCAGAAGGCGAUACAUGAGGAUCACCCAUGUUCAUGGCUUU [JR_E6_Sub100] (puzzle: Exclusion 6)”, the “apparent KD of MS2 coat protein” value under setting [1] turned out to be 12.4 nM.

Consider “UUGGUUGUGGUAGGAUAUCCGUUGGAAACCUUCGGAGAAGGACCACAGUCACUGGGUCUUUGUCUGGUGGACGGUUUCGACCGU [pwkr exNG1 F6.23] (Eterna round: R96, puzzle: Exclusion NG 1)”, for which the “apparent KD of MS2 coat protein” value (input ligand: FMN 200 uM) was found to be 202 nM, the “apparent KD of MS2 coat protein” value under setting [2] came out at 281 nM and the “apparent KD of MS2 coat protein” value (input ligand: none) was found to be 559 nM.

Take “UUGUAGUGAGGAUAUAUAUAGUGGUUUUAUUAAUUUUUAUUACUUGAGGAUCACCCAAGUAGAAGGCGCAAAGU [JR_Ex2_Sub071] (Eterna round: R97, puzzle: Exclusion 2)”: the “apparent KD of MS2 coat protein” value came out at 19.2 nM (input ligand: FMN 200 uM) and 18.3 nM (input ligand: none).
